substrate: CC(=O)N[C@H]1[C@H](Oc2ccc([N+](=O)[O-])cc2)O[C@H](CO)[C@@H](O)[C@@H]1O; assay: discontinuous p-nitrophenolate release assay, non-linear regression; format: biochemical, Talaromyces flavus; conditions: McIlvaine buffer pH 5.0, 25 °C

| Protein | Km | kcat |
| --- | --- | --- |
| TfHex (β-N-acetylhexosaminidase from Talaromyces flavus) (Talaromyces flavus; E332A) (protein, secreted via alpha-factor, pPICZαA, Pichia pastoris KM71H, cation-exchange purified; tetramer of two catalytic subunits and two non-covalently linked propeptides) VAVNPLPAPRSITWGTSGPISVPHNVDVKLPKNAIINDAWERAWTSIKQLRWVPQATEAPISSYEPFPTVAPTSASTASSTPLPSSSAAAVAARSQKRGHQKGSHEKRGHSQSTLRTVTVTVSDLNADLQAEVDESYTLVLDSGSSTLAITANTTWGALHAFTTLQQLVIYQDNSLIIEQPVHIEDSPLYPWRGVMIDTGRNFITVPKIKEQIDGMALSKLNILHWHLDDSQSWPVHMDTYPQMTNDAYSPWQTYSHEDIKDIIEYARARAVRVVPEVDMPGHSAAGWQQVDPSIVACAHSWWSNDNWPYHTAVAPTPGQLDPLNNKTYGVVEKVYNELSGIFTDDFFHVGGDELQTGCYNFSTYVSDYLAADPSRTYNDVTQYWVDHAFPIFKKIQNRKLVIWEDLIINNPHAPNVSTENLLVQSWNNGLTNINNLTNLGYDVLVSSSDFMYLDCGYGGFVTNDPRYDVMVNPDAVDGLANFNWGGNGGSWCAPYKTWQRIYDYDFTTNLTDAQAAHVKGAVAPLWSEQVDDTVISGKMWPRAAALAELVWSGNKDPKTGDKRTTYMTQRILNFREYLVANGVQAAPLVPKYCLQHPHSCDLYYDQTAVV | 880 ± 70 µM | 30 ± 1 s⁻¹ |
| TfHex (β-N-acetylhexosaminidase from Talaromyces flavus) (Talaromyces flavus; E332T) (protein, secreted via alpha-factor, pPICZαA, Pichia pastoris KM71H, cation-exchange purified; tetramer of two catalytic subunits and two non-covalently linked propeptides) VAVNPLPAPRSITWGTSGPISVPHNVDVKLPKNAIINDAWERAWTSIKQLRWVPQATEAPISSYEPFPTVAPTSASTASSTPLPSSSAAAVAARSQKRGHQKGSHEKRGHSQSTLRTVTVTVSDLNADLQAEVDESYTLVLDSGSSTLAITANTTWGALHAFTTLQQLVIYQDNSLIIEQPVHIEDSPLYPWRGVMIDTGRNFITVPKIKEQIDGMALSKLNILHWHLDDSQSWPVHMDTYPQMTNDAYSPWQTYSHEDIKDIIEYARARAVRVVPEVDMPGHSAAGWQQVDPSIVACAHSWWSNDNWPYHTAVTPTPGQLDPLNNKTYGVVEKVYNELSGIFTDDFFHVGGDELQTGCYNFSTYVSDYLAADPSRTYNDVTQYWVDHAFPIFKKIQNRKLVIWEDLIINNPHAPNVSTENLLVQSWNNGLTNINNLTNLGYDVLVSSSDFMYLDCGYGGFVTNDPRYDVMVNPDAVDGLANFNWGGNGGSWCAPYKTWQRIYDYDFTTNLTDAQAAHVKGAVAPLWSEQVDDTVISGKMWPRAAALAELVWSGNKDPKTGDKRTTYMTQRILNFREYLVANGVQAAPLVPKYCLQHPHSCDLYYDQTAVV | 800 ± 100 µM | 13.3 ± 0.4 s⁻¹ |
| TfHex (β-N-acetylhexosaminidase from Talaromyces flavus) (Talaromyces flavus; E332G) (protein, secreted via alpha-factor, pPICZαA, Pichia pastoris KM71H, cation-exchange purified; tetramer of two catalytic subunits and two non-covalently linked propeptides) VAVNPLPAPRSITWGTSGPISVPHNVDVKLPKNAIINDAWERAWTSIKQLRWVPQATEAPISSYEPFPTVAPTSASTASSTPLPSSSAAAVAARSQKRGHQKGSHEKRGHSQSTLRTVTVTVSDLNADLQAEVDESYTLVLDSGSSTLAITANTTWGALHAFTTLQQLVIYQDNSLIIEQPVHIEDSPLYPWRGVMIDTGRNFITVPKIKEQIDGMALSKLNILHWHLDDSQSWPVHMDTYPQMTNDAYSPWQTYSHEDIKDIIEYARARAVRVVPEVDMPGHSAAGWQQVDPSIVACAHSWWSNDNWPYHTAVGPTPGQLDPLNNKTYGVVEKVYNELSGIFTDDFFHVGGDELQTGCYNFSTYVSDYLAADPSRTYNDVTQYWVDHAFPIFKKIQNRKLVIWEDLIINNPHAPNVSTENLLVQSWNNGLTNINNLTNLGYDVLVSSSDFMYLDCGYGGFVTNDPRYDVMVNPDAVDGLANFNWGGNGGSWCAPYKTWQRIYDYDFTTNLTDAQAAHVKGAVAPLWSEQVDDTVISGKMWPRAAALAELVWSGNKDPKTGDKRTTYMTQRILNFREYLVANGVQAAPLVPKYCLQHPHSCDLYYDQTAVV | 1800 ± 200 µM | 51 ± 2 s⁻¹ |
| TfHex (β-N-acetylhexosaminidase from Talaromyces flavus) (Talaromyces flavus; E332N) (protein, secreted via alpha-factor, pPICZαA, Pichia pastoris KM71H, cation-exchange purified; tetramer of two catalytic subunits and two non-covalently linked propeptides) VAVNPLPAPRSITWGTSGPISVPHNVDVKLPKNAIINDAWERAWTSIKQLRWVPQATEAPISSYEPFPTVAPTSASTASSTPLPSSSAAAVAARSQKRGHQKGSHEKRGHSQSTLRTVTVTVSDLNADLQAEVDESYTLVLDSGSSTLAITANTTWGALHAFTTLQQLVIYQDNSLIIEQPVHIEDSPLYPWRGVMIDTGRNFITVPKIKEQIDGMALSKLNILHWHLDDSQSWPVHMDTYPQMTNDAYSPWQTYSHEDIKDIIEYARARAVRVVPEVDMPGHSAAGWQQVDPSIVACAHSWWSNDNWPYHTAVNPTPGQLDPLNNKTYGVVEKVYNELSGIFTDDFFHVGGDELQTGCYNFSTYVSDYLAADPSRTYNDVTQYWVDHAFPIFKKIQNRKLVIWEDLIINNPHAPNVSTENLLVQSWNNGLTNINNLTNLGYDVLVSSSDFMYLDCGYGGFVTNDPRYDVMVNPDAVDGLANFNWGGNGGSWCAPYKTWQRIYDYDFTTNLTDAQAAHVKGAVAPLWSEQVDDTVISGKMWPRAAALAELVWSGNKDPKTGDKRTTYMTQRILNFREYLVANGVQAAPLVPKYCLQHPHSCDLYYDQTAVV | 1220 ± 70 µM | 22.5 ± 0.4 s⁻¹ |
